Source: paper PMC4118585

B1: myc-tagged FIP3 (FIP3-myc) (natural protein)
chain: MASAPPASPPGSEPPGPDPEPGGPDGPGAAQLAPGPAELRLGAPVGGPDPQSPGLDEPAPGAAADGGARWSAGPAPGLEGGPRDPGPSAPPPRSGPRGQLASPDAPGPGPRSEAPLPELDPLFSWTEEPEECGPASCPESAPFRLQGSSSSHRARGEVDVFSPFPAPTAGELALEQGPGSPPQPSDLSQTHPLPSEPVGSQEDGPRLRAVFDALDGDGDGFVRIEDFIQFATVYGAEQVKDLTKYLDPSGLGVISFEDFYQGITAIRNGDPDGQCYGGVASAQDEEPLACPDEFDDFVTYEANEVTDSAYMGSESTYSECETFTDEDTSTLVHPELQPEGDADSAGGSAVPSECLDAMEEPDHGALLLLPGRPHPHGQSVITVIGGEEHFEDYGEGSEAELSPETLCNGQLGCSDPAFLTPSPTKRLSSKKVARYLHQSGALTMEALEDPSPELMEGPEEDIADKVVFLERRVLELEKDTAATGEQHSRLRQENLQLVHRANALEEQLKEQELRACEMVLEETRRQKELLCKMEREKSIEIENLQTRLQQLDEENSELRSCTPCLKANIERLEEEKQKLLDEIESLTLRLSEEQENKRRMGDRLSHERHQFQRDKEATQELIEDLRKQLEHLQLLKLEAEQRRGRSSSMGLQEYHSRARESELEQEVRRLKQDNRNLKEQNEELNGQIITLSIQGAKSLFSTAFSESLAAEISSVSRDELMEAIQKQEEINFRLQDYIDRIIVAIMETNPSILEVK
B2: myc-tagged FIP4 (FIP4-myc), full length (natural protein)
chain: MAGGAGWSGAPAALLRSVRRLREVFEVCGRDPDGFLRVERVAALGLRFGQGEEVEKLVKYLDPNDLGRINFKDFCRGVFAMKGCEELLKDVLSVESAGTLPCAPEIPDCVEQGSEVTGPTFADGELIPREPGFFPEDEEEAMTLAPPEGPQELYTDSPMESTQSLEGSVGSPAEKDGGLGGLFLPEDKSLVHTPSMTTSDLSTHSTTSLISNEEQFEDYGEGDDVDCAPSSPCPDDETRTNVYSDLGSSVSSSAGQTPRKMRHVYNSELLDVYCSQCCKKINLLNDLEARLKNLKANSPNRKISSTAFGRQLMHSSNFSSSNGSTEDLFRDSIDSCDNDITEKVSFLEKKVTELENDSLTNGDLKSKLKQENTQLVHRVHELEEMVKDQETTAEQALEEEARRHREAYGKLEREKATEVELLNARVQQLEEENTELRTTVTRLKSQTEKLDEERQRMSDRLEDTSLRLKDEMDLYKRMMDKLRQNRLEFQKEREATQELIEDLRKELEHLQMYKLDCERPGRGRSASSGLGEFNARAREVELEHEVKRLKQENYKLRDQNDDLNGQILSLSLYEAKNLFAAQTKAQSLAAEIDTASRDELMEALKEQEEINFRLRQYMDKIILAILDHNPSILEIKH

Target: HCMV glycoprotein M (gM, UL100) in HCMV-infected cells (HCMV strain AD169)
Experiment: FRET or BRET

Chain of HCMV glycoprotein M (gM, UL100) in HCMV-infected cells (HCMV strain AD169) (P16733 whole entry): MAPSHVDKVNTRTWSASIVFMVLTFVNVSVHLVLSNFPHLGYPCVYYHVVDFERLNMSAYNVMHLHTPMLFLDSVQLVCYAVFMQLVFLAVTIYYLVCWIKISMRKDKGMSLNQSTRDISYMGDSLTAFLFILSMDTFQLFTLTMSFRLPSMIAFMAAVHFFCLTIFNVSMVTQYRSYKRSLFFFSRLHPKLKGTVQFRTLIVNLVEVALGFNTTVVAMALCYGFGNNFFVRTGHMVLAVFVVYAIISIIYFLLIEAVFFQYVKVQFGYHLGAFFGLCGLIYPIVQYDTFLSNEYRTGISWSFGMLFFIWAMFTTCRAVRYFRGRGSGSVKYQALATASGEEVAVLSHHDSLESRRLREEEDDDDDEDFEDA

Row | Binder | average FRET efficiency [%]
1 | B1 | < 2
2 | B2 | 27
